According to patent US20230167182A1 (BIOSION, published 2023):

T1: recombinant human IL6R-his (human, UniProt P08887 20-365)
T1 construct: In house made; the entry includes the C-terminal His tag; also called human IL6R-his protein
T1 sequence: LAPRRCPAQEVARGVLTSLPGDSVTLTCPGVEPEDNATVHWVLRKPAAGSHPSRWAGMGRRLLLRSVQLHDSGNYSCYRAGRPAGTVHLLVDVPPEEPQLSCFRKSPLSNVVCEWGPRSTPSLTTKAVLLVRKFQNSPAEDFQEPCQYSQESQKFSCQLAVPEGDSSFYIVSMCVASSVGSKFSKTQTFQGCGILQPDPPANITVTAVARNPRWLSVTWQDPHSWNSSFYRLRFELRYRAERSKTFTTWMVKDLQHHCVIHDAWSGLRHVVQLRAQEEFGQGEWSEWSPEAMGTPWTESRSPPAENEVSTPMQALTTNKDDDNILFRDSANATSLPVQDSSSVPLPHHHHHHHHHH

T2: macaca IL6R-his protein (macaca mulatta)
T2 chain: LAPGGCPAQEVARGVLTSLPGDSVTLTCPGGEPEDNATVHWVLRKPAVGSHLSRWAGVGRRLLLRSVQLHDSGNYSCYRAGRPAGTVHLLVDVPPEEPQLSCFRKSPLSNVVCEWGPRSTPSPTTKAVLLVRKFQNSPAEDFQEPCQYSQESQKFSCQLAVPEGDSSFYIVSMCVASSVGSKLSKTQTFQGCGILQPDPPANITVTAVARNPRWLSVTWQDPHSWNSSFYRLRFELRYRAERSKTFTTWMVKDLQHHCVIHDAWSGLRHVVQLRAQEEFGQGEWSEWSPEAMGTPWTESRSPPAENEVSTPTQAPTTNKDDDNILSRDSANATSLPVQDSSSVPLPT


Legend:
[1] = molecular target: T1, recombinant human IL6R-his; test: SPR Biacore; antibody captured by anti-human IgG on CM5, human IL6R-his at 100 nM
Experimental: (§1) Un-reacted moieties on the biosensor surface were blocked with ethanolamine. […] Then, serially diluted recombinant human IL6R-his (in house made, amino acid sequence set forth in SEQ ID NO: 44) or macaca IL6R-his protein (in house made, amino acid sequence set forth in SEQ ID NO: 45), starting at 100 nM with a 2-fold serial dilution in HBS-EP⁺ buffer (provided by Biacore), was flowed onto the chip at a flow rate of 30 μL/min. The antigen-antibody association kinetics was followed for 2 minutes and the dissociation kinetics was followed for 10 minutes. The association and dissociation curves were fit to a 1:1 Langmuir binding model using BIAcore evaluation software.
The recombinant human IL6R-his (amino acid sequence set forth in SEQ ID NO: 44) at the concentration of 100 nM instead of serially diluted recombinant human IL6R-his, was flowed onto the chip at a flow rate of 30 μL/min.

[2] = molecular target: T1, recombinant human IL6R-his; test: SPR Biacore; antibody at 10 ug/ml captured by anti-human IgG on CM5, human IL6R in flow
Experimental: as §1
(§2) Cell supernatants containing humanized antibodies were harvested after six days in shaking flasks and directly subjected to BIAcore test following the protocol described above with modifications.

[3] = molecular target: T1, recombinant human IL6R-his; test: SPR Biacore T200; antibody captured on Protein G chip, antigen in flow, 1:1 fit
Experimental: as §1

[4] = molecular target: T2, macaca IL6R-his protein; test: as above
Experimental: as §1

[5] = molecular target: T1, recombinant human IL6R-his; test: SPR Biacore; antibody from diluted cell supernatant captured by anti-human IgG on CM5, human IL6R in flow
Experimental: as §1, §2

Kd [1] | koff [1] | kon [1] | Kd [2] | koff [2] | kon [2] | Kd [3] | Kd [4] | Kd [5] | koff [5] | kon [5] | Binder
0.4 nM | 5.21e-05 s⁻¹ | 130000 M⁻¹ s⁻¹ | 0.604 nM | 0.000123 s⁻¹ | 204000 M⁻¹ s⁻¹ | – | – | – | – | – | Chimeric 1H7 (antibody, human IgG1, kappa, V domains shown, Mouse variable regions on human IgG1 / human kappa constant regions; also called chimeric antibody 1H7) VH: QVQLQQPGTELVKPGASVKLSCKASGYTFTNYWMHWVKQRPGQGLDWIGEINPTNGRTNYNENFKSKATLTVDKSSSTAYMQLSSLTSEDSAVYYCARLNTHYVFDSWGQGTTLTLSS VL: EIVLTQSPTTLAASPGEKITFTCSVSSSISSNYLHWYQQKPGFSPKLLISRTSTLASGVPARFSGSGSGTSYSLTIGTMEAEDVATYYCQQGSGIPFTFGSGTKLELKR
3.26 nM | – | – | 3.81 nM | – | – | 3.26 nM | 3.8 nM | – | – | – | Tocilizumab (antibody, human IgG1, kappa, V domains shown, In house made; also called benchmark; Actemra) VH: QVQLQESGPGLVRPSQTLSLTCTVSGYSITSDHAWSWVRQPPGRGLEWIGYISYSGITTYNPSLKSRVTMLRDTSKNQFSLRLSSVTAADTAVYYCARSLARTTAMDYWGQGSLVTVSS VL: DIQMTQSPSSLSASVGDRVTITCRASQDISSYLNWYQQKPGKAPKLLIYYTSRLHSGVPSRFSGSGSGTDFTFTISSLQPEDIATYYCQQGNTLPYTFGQGTKVEIKR
– | – | – | – | – | – | – | – | 0.526 nM | 0.000195 s⁻¹ | 370000 M⁻¹ s⁻¹ | humanized antibody hu1H7-V5 (antibody, human IgG1, kappa, V domains shown, Human IgG1 / kappa) VH: QVQLVQSGAEVKKPGASVKVSCKASGYTFTNYWMHWVRQAPGQGLEWIGEINPTNGRTNYNENFKSRVTLTVDTSTSTVYMELSSLRSEDTAVYYCARLNTHYVFDSWGQGTLVTVSS VL: EIVLTQSPGTLSLSPGERATLSCSVSSSISSNYLHWYQQKPGLSPRLLISRTSTLASGIPARFSGSGSGTEYTLTISRMQSEDFAVYYCQQGSGIPFTFGQGTKLEIKR
